Measurements reported in the DeepSol protein solubility set.

experiment: soluble on expression in E. coli; label from the status in PepcDB or PDB records

| Sequence | soluble on expression in E. coli |
| --- | --- |
| MSLKIWGRKNSSNVRKALWIAHELGLDFESIDAGGAFGVVNEPHYRARNPNGLVPMLEDGDLTLWESNTIVRYLCAEYGTEQGWYLADPRQRALADKWMDWTTSSFATPFRPLFWGLLRTPEDQRDWVAINAAHKQCAQLLAIADETLASQPYLSGDQIGMGDIPLGSFIYAWFELPIERPDMYHLQAWYERLKQRPAYQAAVMTALTEGHHHHHH | soluble |
| MISYGELIRQIRQSKKISQKEVYTGVISKSYAIEFEKGTHAISSILLEKIVTKLMVSMEEFFFMYHQEELPEKEDFWEAYERACKTDEIAIWELLYQKISSEEGKINQVKSAAIKLELDHIKGKQVMDKKVVRILENYLIEAVFWTLEDIFLFTRMLPYLSLKSRVPFYYKLLNTLDRYRHFERGRRILQTAIASIIDDFIEKNEIEHMELMIRSLKKISDDCEGAYFKILCMYYHGIIERGEGAEIKQAIAILRVLGYENKALKYEAMYRQFSLKATI | not soluble |
| SNAMKPDIYENNREGILCVYKNEKWLVCIKNWKPDNDIEGIAHLEIHHSTDEQFILSAGKAILITAEKENDKFNIELTLMEKGKVYNVPAECWFYSITQKDTKMMYVQDSNCSMDNSDFCDLSKEEIEYIQTNARKLFEK | soluble |
| MGSDKIHHHHHHMSDTITFWGVRGSIACPFPGHMAYGGNTSCVALGLGGQTVILDAGTGIRALGASAALRGVSRLALLFSHVHRDHIEGFPFFAPAHDRAVRLDIFAGPIEGASIRQLLDNLMSRPMFPLSLDQLRAQKVFHDLPAATAFTLFERIKVRTAALNHPGGATAYRFEHGGRVVCYVTDTEHRPGQPDAGLLELIAGADYVLYDSTYTDREFAAHRGWGHSTWEEGVRLCRQAGARHLVIFHHDPDHDDAAMAAIETAARAAWGGTLVAREGMTIALDSGVVTQAGR | not soluble |
| MREKFYEKYYYAKSDIEGQDGGVVTAFLKYLLENGKIDGAIVVGDECWKPVSLVVQNAEDLLKTAKSKYAISTLDALRKAGEMGLEKVALEHHHHHH | not soluble |
| MGSDKIHHHHHHMLINRNIVALFALPFMASATASELSIGAGAAYNESPYRGYNENTKAIPLISYEGDTFYVRQTTLGFILSQSEKNELSLTASWMPLEFDPTDNDDYAMQQLDKRDSTAMAGVAWYHHERWGTVKASAAADVLDNSNGWVGELSVFHKMQIGRLSLTPALGVLYYDENFSDYYYGISESESRRSGLASYSAQDAWVPYVSLTAKYPIGEHVVLMASAGYSELPEEITDSPMIDRNESFTFVTGVSWRF | not soluble |
| SAQDLRMSYCYAKFEGGKCSSPKSRNHSKQECCCALKGEGWGDPCELCPTEPDEAFRQICPYGSGIIVGPDDSA | soluble |
| MNLRGILPFAHDTLRKVVRSGDYVIDATCGNGHDTLLLAELVGVNGHVLGFDIQQMAIDATKTRLENAGVASQVELVCASHALIPEYATKPVRAAIFNLGYLPGGDKEITTTADSTLESIGHLMQLLEVGGVIIIVIYHGHPAGKVEKDAVLTFCEAIPQQDFHVLSYNFINQKNDAPFVIIIEKRKPLEHHHHHH | not soluble |
| MTDPARMVELWRGGLLESWHTGHAAVWSADGGLVEAWGDPGTVIFPRSSCKMMQALPLLESGAGAGLSSQRLALACASHQGAELHTGHVGRWLTDLGLCEADLRCGAHMPADTAERDRLIRAYEEPCQIHNNCSGKHAGFLMLSQHLKAGPEYVEIDHPVQQAVRTAFEEVTDEASPGYGIDGCSAPNFATTVAGLARAMAFFAGASTGGGVRERSAARLVEAMIAHPELVAGEGRACTELMRAMGGRAAIKTGAEAVFVAIVPEKRLGIALKIVDGSTRASEAAIAALLVRHGLLDPAHPAARKRLDAIQTNWRGRETGILRAAPGFPLEHHHHHH | not soluble |
| LKSADHGGRLAYDNGRYGDGDGLTQNGGVNGGLRFGESGFLNLSAQFREQARTIRAGIDQRTGHYGNPSIGDPSLHRQALAYNAGVALDDNVELYSFATYTHRSVSSAQIYQLPSLAPRLYPNGFTPRITSDEDDYSLTLGARGGELFGAWDWDLSSTYGADRPEIGMDHSINLALYGETGDSPRSFDLARYKATQWTNNLDLRRDFDLAWLPAPLNFSWGLEQRRELYEVEAGDPWSYYNGGSKALPGQAPATAGQWSRDVLGAYLDLSIALDERWQLETAARYEHYSDFGSTTNGKLASRYRFSPEVSARASLSSGFRAPSLAQENYTS | not soluble |
| SAASGEEDMSELSPAAAPNLDWYEKPEETHAPEVDLETVIPPAQEPSNPAEPFCPRDLVPVVFPGPVSQEDCCQFTCELLKHILYQRHQLPLPYEQLKHFYRKAPQAEDTARKKAWLATEARNRKCQQALAELESVLSHLRDFFARTLVPQVLILLGGNALSPKEFYELDLSRLAPFGVDQGLNTAACLRRLFRAIFLADPFSELQTPPLMGTIVMVQGHRDCGEDWFQPKLNYRVPSRGHKLTVTLSCGRPSVPAMASEDYIWFQAPVTLKGFHE | soluble |
| MSLGLNILKTLRSHRVSEGVSNSDTHYELTSALIKSLRGSDIDASIYYLARLIQGGEEPAFLARRMVIFASEDIGNANPNALNLATNVMLAVSKIGYPEARIILAQCAVYLASSPKSNSSYKAINDAIEFVENRPALPVPKYLINTDKAKSEYLYPHDFGGWVEQKYMSTQVKFYKSNAIGFEKTLDEWITKLKESYNEKEGHHHHHH | soluble |
| MPSLQDLYAAFRRIAPYTHRTPLLTSRLLDGLLGKRLLLKAEHLQKTGSFKARGALSKALALENPKGLLAVSSGNHAQGVAYAAQVLGVKALVVMPEDASPYKKACARAYGAEVVDRGVTAKNREEVARALQEETGYALIHPFDDPLVIAGQGTAGLELLAQAGRMGVFPGAVLAPVGGGGLLAGLATAVKALSPTTLVLGVEPEAADDAKRSLEAGRILRLEAPPRTRADGVRTLSLGERTFPILRERVDGILTVSEEALLEAERLLFTRTKQVVEPTGALPLAAVLEHGARLPQTLALLLSGGNRDFSP | soluble |
| MGSDKIHHHHHHMDFYQVIKTRTSTKKFKNTPIAAPKLDNMLNAAMMSPSWKNKTSYSFVIVDDERKKDAIANFIINSDEDAKNSVKDAPMVVAIVGDTTESGHINGKEYYLVDSAIAMEHFVLAAANEGYGTCWIASFDEKRMKDELRIPDKYSVVAITPVGEVGESKAHYEPKDIENHIYRNYWSMPYSEKKHLVMK | not soluble |
| MGSDKIHHHHHHMKVKYIAAILLSTQLVYTACDDMGFLQIKPDSLELTDDRIKTVDDLENLLLGAYNGIRSSGFWGGRTLRGFDVIADDGVADVATFEWVQMSAHTMNLVNAVGRDTWTATYNAINMANQVAFSDLGESILASDPQKEAQFKAEASFIRALGYFHLVRAFGLPYAEETKDIAEMGVPLRLRGVMDRATAFEVVQRSTVSEVYSQIISDLEYAIGNLPGENKVESGRATVDGAKALLAKVYFYKHDFGNAAKYAEQVINTQKYDLDEDLTAKFGRAEKKTVTQEIVAMIPSASLIEDSWGGLRDYRTNGLALPTSRPSNELIAAYDQQNDNRFKTFFKNIDGSWYTLKFDYEYMDGIIIGYNELLLLYAESLAESNGNMNQALNALQKIEKRAYGKANTTTTDRASFIKAVQKERRLEIALQGERLFELKRIKQSVRGEAWDSHKVMFQIPDVEQNGNPDVNMN | not soluble |
| MSLSDDTIDRFFGYLNWLFNPFHGLKTTEVYDLIGTSSLTENALYLNLGYWRKADTIDEASEALALLVAKRGGMGPGDIVLDCGYGFGDQDILWARQLKPEKIIGLNITSSQVERARKRVADAGLEQSIDLREGSATAMPIENESIDLVVSVESAFHYRTREAFFREAFRVLRPGGRLVTADIVPTENSGNPFRRMEQWFSWNLVAGKFNIPQENYYLIPSYQNKLTKAGFVQIDIKSIRDDVYEPLHAYLAKNRTFFAKMHPLARIMAQLTLNRSAESVYAGLDYILSYAEKEGHHHHHH | soluble |
| MSSAWKTPRGSDAMPEIMVKIIGSKHFQYLVEKPKIKENDSLKTETQTMHQKPMTDNARQMSRDTPVPINFTDQQTTDNPDDVKEKKHPENNQKSENNQKLLTGANSSRFLDGNIPSQANVHCSSVPTGDQSLSYVHGIPRRKLRDWSLEQMVRGSSDQPEDIGQSPSGTTNEDAFLLALVRRELKSRPLSSNLLEKLQKELKILDPISSGFLLQSQLSRLFLKHEVPLQLPTVKILCQRFSKRGSPEMVNYEKLLWFLNSAASDYPQQNKAAADLRKTESHGTHSQSTPPQHSSSQPEVNRSLLEILKMALRTTNGRLNIDNLNLSFRKEDRSFSGCLPLPKVRAICGKHGLYLTLSLLETLLNHQDLGYQNEIKWQNFVEMLTRASSDLLSDLPTGKNEKKAPAPPMEPEVPEMSQSKTEHMKTPEEELQPESSPAETSACKDPLKPLKIRPVSQPFVNPAVKNKAEECETWIDRFRKLENALYLCDLSNTGVLEKERARRLIHNYNLIYNLSLSPQKIDQALRRFRSGENMLLEPALRYLKEL | not soluble |
| MVLNSMRLFYILSQRDASSKNFNSSIYSRRSSRNSGCPGALFRSGRAVPFERVVGQQYFLKAYAILHSLNICRVEAGYIFDRKKTKFQDFLRFGRAGMASGVGGGSEGGPDDVKNSYIRVNGEPEIVYQ | not soluble |
| MDEIDLRILKILQYNAKYSLDEIAREIRIPKSTLSYRIKKLEKDGVIKGYYAYINPASLNLDYIVITSVKAKYGKNYHVELGNKLAQIPGVWGVYFVLGDNDFIVMARYKTREEFMEKFLERVMSIPEVERASTQVVVKIIKESPNIVIF | soluble |
| MVATVVNVQVKNEEKIETAPKKVVFDTKNLNLWYGEDHALKDINLSIHENEVTAIIGPSGCGKSTYLKTLNRMVELVPIVRTTGVIEYRERNIFDKSYPVEELRTHVGMVFQKPNPFPKSIYENVAYGPKIHGISDKKTLDEIVEKSLRGAAIWDELKDRLHDNAYGLSGGQQQRLCIARCLAIEPDVILMDEPTSALDPISTLKVEELIQELKKDFSIVIVTHNMQQAARISDKTAFFLSGEVVEYTDTNKLFTTPSDKRTEDYITGRFG | not soluble |
| SPFDTGPELESQIRNQYGVDVHVVPVLDTLNEAETLDRVAMQAARTIGPLVDSNAIIGVAWGATLSAVSRHLTRKMTHDSIVVQLNGAGNMQTTGITYASDIMRRFGSAYGARVEQFPVPAFFDHASTKTAMWNERSVQRILDLQARMSIAIFGVGSVDSDYPSHVYAGGYLDEHDLTMLAADDVVGDVATVFFRSDGSSDGITLNERSTGPSHEQLRQVRRRICVVSGASKINGLQGALAAGLATDLILDEASARRLVSFNGHS | soluble |
| MTNESEVGVKKAAELLRQGATMLEEACPICKMPLFKLKNGDVVCPVHGKVYIVKSDDEEKIVKRNLQLDEIESILIDGLYLSAKKMKEDPLDSERIIQIIRYLDALERLRKIKINSSE | not soluble |
| MGSSHHHHHHSSGLVPRGSHMRQLTEEETKVVFEKLAGYIGRNISFLVDNKELPHVFRLQKDRVYYVPDHVAKLATSVARPNLMSLGICLGKFTKTGKFRLHITSLTVLAKHAKYKIWIKPNGEMPFLYGNHVLKAHVGKMSDDIPEHAGVIVFAMNDVPLGFGVSAKSTSESRNMQPTGIVAFRQADIGEYLRDEDTLFT | soluble |
| DKPVLKDSMRLFEQLGRVKSRSMFGGFGIFVDETMFALVVNDTLHIRADDATIEKYKQQGYEPYVYKKRGFPVVTKYYALPEDCWSHPDSILNEVRAALEVAKAERETQAQAK | not soluble |
| EKELLDNFKKNITQYAKQLEISIEKVYDEKGSVNAQKDIQNLLSEYANRQEIGEIRFIDKDQIIIATTKQSNRSLINQKANDSSVQKALSLGQSNDHLILKDYGGGKDRVWVYNIPVKVDKKVIGNIYIESKINDVYNQLNNINQ | not soluble |
| KCPRCGKSVYAAEKVMGGGKPWHKTCFRCAICGKSLESTNVTDKDGELYCKVCYAKNF | soluble |
